Assay results published in the supplement of paper PMC9170038.

System: MS2 coat protein
Experiment: apparent KD of MS2 coat protein; designed switch direction (-1 OFF switch, 1 ON switch): 1; higher = weaker reporter binding
How it was run: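 An oligonucleotide input, 200 uM small-molecule ligand, or no input was present during titration of SNAP-549-labelled MS2 coat protein, which was doubled from 0.7 or 1.5 nM to 3 µM. Designed RNA switches had been transcribed on Illumina chips by stalled E. coli RNA polymerase. Apparent KD per design is the median over clusters of curves fitted to normalised cluster fluorescence.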

[1] = Eterna round: R95, input ligand: FMN 200 uM
[2] = Eterna round: R95, input ligand: microRNA oligo, concentration not stated
[3] = Eterna round: R95, input ligand: none
[4] = input ligand: microRNA oligo, concentration not stated

Sequence: CGUAGGUAGCUGGAGGAUAUCCGAGUGGUAACAUGAGGAUCACCCAUGUGAUGUGAGGAACAUGAGGAGAAGGCUAGCUGCCUGC [JL-ss2-3.12 JL mod] (puzzle: Same State 2)
- apparent KD of MS2 coat protein [1]: 23.1 nM
- apparent KD of MS2 coat protein [2]: 37.5 nM
- apparent KD of MS2 coat protein [3]: 38.2 nM

Sequence: UAGUACAUGCUUUUUGUCUGUCUUAGAUAACAUGAGGAUCACCCAUGUAAGGUGAAAGUUAUAUAGUUUAUGAAUAU [JR_SHM208A_Sub058] (Eterna round: R96, puzzle: Sensor for hsa-mir-208a)
- apparent KD of MS2 coat protein (input ligand: FMN 200 uM): 242 nM
- apparent KD of MS2 coat protein [4]: 309 nM
- apparent KD of MS2 coat protein (input ligand: none): 241 nM

Sequence: UUUCUUCUCGUAGGAUAUGUAGGAUAUGCCUACAUGAGGAUCACCCAUGUUCGCAUGGCAGAAGGACAGAAGGACGAUCACCCU [pwkr ssNG2 2FMN + 1F5.9] (Eterna round: R96, puzzle: Same State NG 2)
- apparent KD of MS2 coat protein (input ligand: FMN 200 uM): 55.4 nM
- apparent KD of MS2 coat protein [4]: 234 nM
- apparent KD of MS2 coat protein (input ligand: none): 502 nM

Sequence: AGCUAUUAAUCAGGAUAUAGUGACAUGAGGAUCACCCAUGUAUUAAUGAUGAAAUGUGGUCGCCGCUAGAAGGGAUUACUAACA [SameState NG2 #44] (Eterna round: R96, puzzle: Same State NG 2)
- apparent KD of MS2 coat protein (input ligand: FMN 200 uM): 67.1 nM
- apparent KD of MS2 coat protein [4]: 22 nM
- apparent KD of MS2 coat protein (input ligand: none): 30.1 nM

Sequence: AGGGCCGCGGCACAGGAUAUGCACAGGUUCACAUGAGGAUCACCCAUGUGCUCUAGAUAACUUAAGCAGAAGGGUGUCAUGGUAA [Biarrace] (puzzle: Same State 2)
- apparent KD of MS2 coat protein [1]: 11.2 nM
- apparent KD of MS2 coat protein [2]: 12 nM
- apparent KD of MS2 coat protein [3]: 14.1 nM

Sequence: AGUCCAGCCUGAGCUGGACUGAAGCAUGUACAUGAGGAUCACCCAUGUUCAUGUACAGGCUUUUUGCUCGUCUUAUG [JL-shm-2.02 JL mod] (puzzle: Sensor for hsa-mir-208a)
- apparent KD of MS2 coat protein [1]: 842 nM
- apparent KD of MS2 coat protein [2]: 18.2 nM
- apparent KD of MS2 coat protein [3]: 879 nM

Sequence: AGAUGUUAAUUAGGAUAUGGUCACAUGAGGAUCACCCAUGUAACGAUGAUACGAUGUGGUCAAGACUAGAAGGGAUCGCUAACA [SameState NG2 #72] (Eterna round: R96, puzzle: Same State NG 2)
- apparent KD of MS2 coat protein (input ligand: FMN 200 uM): 204 nM
- apparent KD of MS2 coat protein [4]: 86.4 nM
- apparent KD of MS2 coat protein (input ligand: none): 155 nM

Sequence: GCAGGAAGCAAAGGAUAUGGAAGAUUACUCAGUCCAGAAGGUUGCUUCUUGGAACAUGAGGAUCACCCAUGUCACCGUUACGGC [Eternabot solution 30] (Eterna round: R96, puzzle: Same State NG 1)
- apparent KD of MS2 coat protein (input ligand: FMN 200 uM): 15.8 nM
- apparent KD of MS2 coat protein [4]: 19 nM
- apparent KD of MS2 coat protein (input ligand: none): 14.5 nM

Sequence: UCACCUAUCGACAUGAGGAUCACCCAUGUGGAUUGAGCUUCCAAGGAUAUCGGCGCACAACCCAUCGAGAAGGUGGAAAGAUAC [Eternabot solution 32] (Eterna round: R96, puzzle: Same State NG 3)
- apparent KD of MS2 coat protein (input ligand: FMN 200 uM): 16.6 nM
- apparent KD of MS2 coat protein [4]: 12.3 nM
- apparent KD of MS2 coat protein (input ligand: none): 18 nM

Sequence: GCCAUCGCAUGAGGAUAUGGCACCGAAACGGUGCCAGAAGGCAUGUCGAAAGACAUGAGGAUCACCCAUGUAGUAUAGAUGGCA [Mat - Same State NG 1 - JL mod - D93] (Eterna round: R96, puzzle: Same State NG 1)
- apparent KD of MS2 coat protein (input ligand: FMN 200 uM): 222 nM
- apparent KD of MS2 coat protein [4]: 228 nM
- apparent KD of MS2 coat protein (input ligand: none): 900 nM

Sequence: AUAGUUUCCGAAGGAUAUGAUGAGGAUCACCCAUCAGAAGGUUGGCUAUUGGGCGGACAUGAGGAUCACCCAUGUCUUUCUGUU (Eterna round: R96, puzzle: Same State NG 1)
- apparent KD of MS2 coat protein (input ligand: FMN 200 uM): 12.7 nM
- apparent KD of MS2 coat protein [4]: 10.7 nM
- apparent KD of MS2 coat protein (input ligand: none): 18 nM

Sequence: AUUGCUUACGCAGGAUAUGAUGCGAAAAUUGCGUCAGAAGGGUGAAGUAACUCAUUGCAACAGGACAUGAGGAUCACCCAUGUC [SameState NG1 #89] (Eterna round: R96, puzzle: Same State NG 1)
- apparent KD of MS2 coat protein (input ligand: FMN 200 uM): 105 nM
- apparent KD of MS2 coat protein [4]: 250 nM
- apparent KD of MS2 coat protein (input ligand: none): 681 nM

Sequence: GGGUAGAUUUGAGGAUAUCCUUAACCAACAUGAGGAUCACCCAUGUCCAAAAGAGUUCAUUUACCGGAGAAGGCAGAUGCACCC [Eternabot solution 50] (Eterna round: R96, puzzle: Same State NG 2)
- apparent KD of MS2 coat protein (input ligand: FMN 200 uM): 74.7 nM
- apparent KD of MS2 coat protein [4]: 61.4 nM
- apparent KD of MS2 coat protein (input ligand: none): 86.4 nM

Sequence: AUUUAACAAGCUUUUUGCUCGUCUUAUAAACAUGAGGAUCACCCAUGUAAUAGCGUGAGAGUAAAUUUAUAAAUAAU [JMF 88] (puzzle: Sensor for hsa-mir-208a)
- apparent KD of MS2 coat protein [1]: 15.7 nM
- apparent KD of MS2 coat protein [2]: 42.5 nM
- apparent KD of MS2 coat protein [3]: 14.7 nM

Sequence: AGUAGUUUAACAUGAGGAUCACCCAUGUAUCUAUCUGUAACCUAGGAUAUGGAGGUUUUAUUUAACCAGAAGGAGGAUUGUUUA [JR_SSNG3_Sub044] (Eterna round: R96, puzzle: Same State NG 3)
- apparent KD of MS2 coat protein (input ligand: FMN 200 uM): 19.8 nM
- apparent KD of MS2 coat protein [4]: 17.6 nM
- apparent KD of MS2 coat protein (input ligand: none): 24.2 nM

Sequence: AGCUAUUAAUCAGGAUAUAGUGACAUGAGGAUCACCCAUGUAUUGAUGAUUAAAUGUGGUCACCGCUAGAAGGGAUUACUAACA [SameState NG2 #47] (Eterna round: R96, puzzle: Same State NG 2)
- apparent KD of MS2 coat protein (input ligand: FMN 200 uM): 25.6 nM
- apparent KD of MS2 coat protein [4]: 23.3 nM
- apparent KD of MS2 coat protein (input ligand: none): 30.1 nM

Sequence: GGAGCUGUUAUAGGAUAUCCCGCUCAUUACGCGGGAGAAGGGUGACGCUCACAUGAGGAUCACCCAUGUGGCGUUCCAAAAUAA [Reesti] (Eterna round: R96, puzzle: Same State NG 1)
- apparent KD of MS2 coat protein (input ligand: FMN 200 uM): 8.43 nM
- apparent KD of MS2 coat protein [4]: 7.1 nM
- apparent KD of MS2 coat protein (input ligand: none): 12.6 nM

Sequence: UAAGUCAUGUAAGGAUAUGCAGCCGAAACGGCUGCAGAAGGUACUAUAAUUACAUGAGGAUCACCCAUGUUAUAAAAUUUAAAU [Mat - Same State NG 1 - JL mod - D78] (Eterna round: R96, puzzle: Same State NG 1)
- apparent KD of MS2 coat protein (input ligand: FMN 200 uM): 24.1 nM
- apparent KD of MS2 coat protein [4]: 43.2 nM
- apparent KD of MS2 coat protein (input ligand: none): 60.7 nM

Sequence: GCGAAGAGGUAAGGAUAUGCAUGGCGGAGACAUGAGGAUCACCCAUGUUGGAGACGAAAUCUAGGGUAGAAGGUACCAGGACGC [AK SSNG2-V2-13] (Eterna round: R96, puzzle: Same State NG 2)
- apparent KD of MS2 coat protein (input ligand: FMN 200 uM): 41.5 nM
- apparent KD of MS2 coat protein [4]: 64.6 nM
- apparent KD of MS2 coat protein (input ligand: none): 72.9 nM

Sequence: UUGAUGAACUGAGGAUAUCGAGUCGUCUCAUUACACAUGAGGAUCACCCAUGUGGGUUGUGGUAUCGAGAAGGCAGAAUACUCA [JR_SSNG2_Sub033] (Eterna round: R96, puzzle: Same State NG 2)
- apparent KD of MS2 coat protein (input ligand: FMN 200 uM): 25.1 nM
- apparent KD of MS2 coat protein [4]: 28.7 nM
- apparent KD of MS2 coat protein (input ligand: none): 32.8 nM

Sequence: GGUCCAGCCUGAGCUGGACCGAAGCAUGUACAUGAGGAUCACCCAUGUCAUGUACAGGCUUUUUGCUCGUCUUAUUG [JL-shm-2.12 JL Mod] (puzzle: Sensor for hsa-mir-208a)
- apparent KD of MS2 coat protein [1]: 685 nM
- apparent KD of MS2 coat protein [2]: 15.7 nM
- apparent KD of MS2 coat protein [3]: 694 nM

Sequence: AUUAAACAUGAGGAUCACCCAUGUCAACAAAGUCGAGGAUAUGGGCAAAUAAAAUAUGAACCAGAAGGCGAAUAAU [salish99_ss1_r3_064] (puzzle: Same State 1)
- apparent KD of MS2 coat protein [1]: 32.1 nM
- apparent KD of MS2 coat protein [2]: 220 nM
- apparent KD of MS2 coat protein [3]: 412 nM

Sequence: UCUGCAAGAACAGGAUAUGGGUUCAGAGCGGGAGUGCGCUUUGAUACAUGAGGAUCACCCAUGUCCCAGAAGGGUUCAAGCGGC [Maedraedbi] (Eterna round: R96, puzzle: Same State NG 2)
- apparent KD of MS2 coat protein (input ligand: FMN 200 uM): 32.9 nM
- apparent KD of MS2 coat protein [4]: 35.2 nM
- apparent KD of MS2 coat protein (input ligand: none): 188 nM

Sequence: AUUAUUUCAUGAGGAUAUGGCACCUUAUUGGUGCCAGAAGGCAUGUCUAUAAGACAUGAGGAUCACCCAUGUUUAAAUUAUAUA [Eli NG1ss - 90] (Eterna round: R96, puzzle: Same State NG 1)
- apparent KD of MS2 coat protein (input ligand: FMN 200 uM): 24.1 nM
- apparent KD of MS2 coat protein [4]: 164 nM
- apparent KD of MS2 coat protein (input ligand: none): 181 nM

Sequence: AACCCAGUGGAAGGAUAUGGCACCUUAUUGGUGCCAGAAGGUCCUAACAUGAGGAUCACCCAUGUGGGCCGGUCGAAAGACCGG [Fiskers NG1ss - 10] (Eterna round: R96, puzzle: Same State NG 1)
- apparent KD of MS2 coat protein (input ligand: FMN 200 uM): 101 nM
- apparent KD of MS2 coat protein [4]: 242 nM
- apparent KD of MS2 coat protein (input ligand: none): 338 nM

Sequence: AGGCUCAGACUAGGAUAUGAUCAUGGCGCUUCGGCGCAUACAUGAGGAUCACCCAUGUAAAGUGAUCAGAAGGAGUCUGAGCCA [SSNG2/7-C1] (Eterna round: R96, puzzle: Same State NG 2)
- apparent KD of MS2 coat protein (input ligand: FMN 200 uM): 9.82 nM
- apparent KD of MS2 coat protein [4]: 9.08 nM
- apparent KD of MS2 coat protein (input ligand: none): 13.6 nM

Sequence: GCUGGAAACUACAUGAGGAUCACCCAUGUUCCGGAAACGGCACAGGAUAUCUGUCCGAAAAGGUCAGAGAAGGGUGAAACCAGC [Fiskers NG3ss - 84] (Eterna round: R96, puzzle: Same State NG 3)
- apparent KD of MS2 coat protein (input ligand: FMN 200 uM): 106 nM
- apparent KD of MS2 coat protein [4]: 90.3 nM
- apparent KD of MS2 coat protein (input ligand: none): 1020 nM

Sequence: UGUUUGUUGUGAGGAUAUACGUACACCCUACAUGAGGAUCACCCAUGUUGUUCCCUUGAUUGUUGGUAGAAGGCACUUGGUUAU [JR_SSNG2_Sub049] (Eterna round: R96, puzzle: Same State NG 2)
- apparent KD of MS2 coat protein (input ligand: FMN 200 uM): 216 nM
- apparent KD of MS2 coat protein [4]: 122 nM
- apparent KD of MS2 coat protein (input ligand: none): 118 nM

Sequence: UUGCUCGUGUAAGGAUAUGCAGCCGUUUCGGCUGCAGAAGGUACUAUAAUACAUGAGGAUCACCCAUGUCUCUAUUAUUUAGUG [salish99_SSNG1_r04_925] (Eterna round: R96, puzzle: Same State NG 1)
- apparent KD of MS2 coat protein (input ligand: FMN 200 uM): 43 nM
- apparent KD of MS2 coat protein [4]: 38.3 nM
- apparent KD of MS2 coat protein (input ligand: none): 49.4 nM

Sequence: AUGGUGCAGGUACAGGAUAUGUUGCUCGUAACAUGAGGAUCACCCAUGUACCUAUGAGAUUAAAUGCAGAAGGGUGCACACCACA [Mat - Same State 2 - Mod of UCT - D88] (puzzle: Same State 2)
- apparent KD of MS2 coat protein [1]: 40.8 nM
- apparent KD of MS2 coat protein [2]: 325 nM
- apparent KD of MS2 coat protein [3]: 283 nM
